pIC50: −log10 of the molar value. Where two headings read alike, the source gives them in different places.
Assays:
[1] = test system: MDA-MB231 tumor xenografts; assay: In vivo fluorescence imaging and biodistribution, MDA-MB231 xenografts
Experimental: (§1) In vivo fluorescence imaging and biodistribution. For the development of subcutaneous tumor xenografts, MDA-MB231, OVCAR-3 and HEC-1B 5×10^6 cells in 0.2 ml sterile PBS were injected subcutaneously in the right hind flank of the female nu/nu mice. Tumor imaging was initiated once the tumor volume reached between 200 mm^3 to 300 mm^3. Each tumor-bearing mice was intravenously injected (via tail vein) with the 10 nano moles of fluorescence dye conjugate either in the presence or absence of a 100-fold excess of the unlabeled conjugate. Animals were euthanized two hours post injection using CO2 and the images were acquired using Caliper IVIS Luminal II. After performing the whole body image, the organs of interest were harvested and imaged to inspect the accumulation of the fluorescence in these organs. The image acquisition parameters were as follows: i) lamp level-high, ii) excitation-745 nm, iii) emission-ICG, iv) binning (M) 4M, (v) f-stop-4, (vi) FOV-12.5, (vii) acquisition time, 1 s. All final conjugates were purified by HPLC prior to its use in in-vitro and in vivo studies.
To determine the efficiency of the conjugates to target the receptor positive tumor in vivo female nu/nu athymic nude mice were subcutaneously implanted with either MCF7, MDA-MB231, OVCAR3 or HEC-1B. Once the tumor reached an appropriate volume the mice were injected intravenously with the dye conjugates (10 nmoles) either in the presence or absence of the excess of the unlabeled targeting molecule. Mice were imaged 2 h post injection to investigate the accumulation of the dye conjugates in tumor and other vital organs.
(§2) Mice were treated intravenously with the dye conjugate either in the presence or absence of 100-fold excess of the unlabeled conjugates. […] All the images were acquired 2 h post injection. List of organs from top to bottom: Tumor, heart, lungs, pancreas, spleen, muscle, skin, small intestine, large intestine, stomach, liver, and kidney.
as §2, with “Tumor, brain,” for “Tumor,”, “stomach,” for “pancreas, spleen, muscle, skin,”, “muscle, pancreas, spleen,” for “stomach,”
Time course study. The effectiveness of JL-L3-S0456 to accumulate in the receptor-positive tumors were further inspected by injection the dye conjugate in ovarian cancer and endometrial xenografts. […] To investigate the retention time of the dye conjugate in the tumor a time-course study was performed. Mice were injected with 10 nmoles of the dye conjugates and imaged at 2 h, 8 h, and 12 h.

HEC-1B tumor xenografts = conditions: endometrial xenografts, 2 h post injection
Experimental: as §1
(§3) To determine the efficiency of the conjugates to target the receptor positive tumor in vivo female nu/nu athymic nude mice were subcutaneously implanted with either MCF7, MDA-MB231, OVCAR3 or HEC-1B. […]

OVCAR3 tumor xenografts = conditions: ovarian cancer xenografts, 2 h post injection
Experimental: as §1, §3

SKOV3 cells = type: cell-based, human; conditions: receptor negative cell line, 2 h exposure + 66 h
Experimental: (§4) In vitro determination of cell viability. MDA-MB231 and SKVO3 cells were seeded at a concentration of 10,000 cells per well on a 24 well plate and allowed to grow in monolayers. […] After incubating for 2 h at 37° C., cells were rinsed three times with fresh medium and then incubated in 0.5 ml fresh medium for an additional 66 h at 37° C. Sent medium was then replaced with 0.5 ml of medium containing ^3H-thymidine and incubated for additional 4 h. Cells were then again washed three times with the fresh medium and then incubated with 0.5 ml of 2.5% trichloroacetic acid for 10 min at room temperature. After removing the trichloroacetic acid, cells were dissolved in 0.25 N NaOH. Cell viability was determined by counting the incorporation of ^3H-thymidine in cells using scintillation counter (Packard, Packard Instrument Company). The IC50 value was derived from a plot of the percent of ^3H-thymidine incorporation versus log concentration using Graph Pad Prism 4.
(§5) In vitro cytotoxicity of tubulysin B hydrazide conjugate: To inspect the killing efficiency of the therapeutic conjugate, MDA-MB231 and SKOV3 cancer cells were incubated with various concentrations of JL-L3-TubBH either in the presence or absence of excess JL-L3, for 2 h at 37° C. After washing off the excess conjugate, the cells were incubated in fresh media for an additional 66 h followed by incubation with media containing ^3H-thymidine to assess cell viability. Radioactivity was counted using PerkinElmer's scintillation counter. The same procedure was repeated after exposing the cells to the free tubulysin B hydrazide.

MDA-MB231 cells = type: cell-based, human; conditions: 2 h exposure + 66 h
Experimental: as §4, §5

MDA-MB-231 tumors = assay: In vivo efficacy of tubulysin B hydrazide conjugate, LHRH-R positive tumors; parameters: species or system mice
Experimental: (§6) Tumor model and therapy: 5-6 weeks old female nu/nu athymic nude mice were subcutaneously injected with 5.0×10^6 breast cancer cells MDA-MB231 and ovarian cancer cells SKVO3 into their shoulders. Tumors were measured in two perpendicular directions 3 times per week with Vernier calipers, and their volumes were calculated as 0.5×L×W^2, where L is the longest axis (in millimeters), and W is the axis perpendicular to L (in millimeters). Treatment was initiated once the tumor volume reached ˜100 mm^3. Dosing solutions were prepared in sterile saline and injected intravenously. […] Mice were administered with the test agents 3 times per week for 3 weeks and as a measure of gross toxicity mice were simultaneously weighed at each dosing.
In vivo efficacy of tubulysin B hydrazide conjugate: To investigate the efficacy of JL tubulysin conjugate nu/nu athymic nude bearing LHRH-R positive tumors (MDA-MB-231, breast cancer) were randomly divided into three groups: saline control, targeted, and competition and were then treated with test agents 3 days per week for 3 weeks. LHRH-R positive (MDA-MB-231) and negative (SKOV3) cancer cells were s.c implanted in to nu/nu athymic mice and treatment was initiated once the tumor volume reached ˜100 mm^3. Mice were randomized into several groups with 5 mice in each group. […] All the test agents were administered intravenously through tail vein. The mice in control and competition group were euthanized after the last doing whereas the mice in treatment group were continuously monitored for recurrence of tumor and weight loss. […] (FIG. 22A, The dotted vertical line indicates the day of final dosing (day 36)) Without intending to be bound by theory, this further confirmed that the efficacy of targeted tubulysin B hydrazide conjugate is receptor mediated. Moreover, to comprehensively test the anti-tumor efficacy of targeted conjugate (JL-L3-TubBH), mice bearing LHRH-R negative tumors (SKOV3, ovarian cancer) were divided into similar groups as MDA-MB-231 tumor bearing mice and a similar treatment regimen was followed. […] (FIGS. 22B & 22D)
After completion of the treatment the mice in MDA-MB-231 targeted group were monitored and kept on regular chow diet for next five weeks. During this time period the tumor volume and weight was monitored three time a week. (FIG. 23) Mice were treated with the LHRH-R targeted tubulysin B hydrazide conjugate (JR-L3-TubBH) for thrice a week for 3 weeks (n=5). After completion of the study tumor volume and weight of mice was continuously monitored till 75 days post tumor implantation. The dotted vertical line specifies the last day of dosing.

SKOV3 tumors = assay: In vivo efficacy of tubulysin B hydrazide conjugate, LHRH-R negative tumors; parameters: species or system mice; conditions: 2 μmol/kg i.v., 3 times per week for 3 weeks
Experimental: as §6
In vivo efficacy of tubulysin B hydrazide conjugate: To investigate the efficacy of JL tubulysin conjugate nu/nu athymic nude bearing LHRH-R positive tumors (MDA-MB-231, breast cancer) were randomly divided into three groups: saline control, targeted, and competition and were then treated with test agents 3 days per week for 3 weeks. […] The mice in control and competition group were euthanized after the last doing whereas the mice in treatment group were continuously monitored for recurrence of tumor and weight loss. […]

[2] = 10 nmoles i.v., 2 h post injection
[3] = 2 μmol/kg i.v., 3 times per week for 3 weeks
[4] = monitored five weeks after treatment, till 75 days post tumor implantation

SMILES | Kidney fluorescence [1, 2] | Liver fluorescence [1, 2] | Tumor uptake [1, 2] | Competition of tumor uptake by unlabeled JL-L3 ([1]; 100-fold excess of unlabeled conjugate, 2 h post injection) | Tumor fluorescence intensity at 12 h compared with 2 h post injection ([1]; time course, 10 nmoles, imaged at 2 h, 8 h, 12 h) | Tumor uptake (HEC-1B tumor xenografts) | Tumor uptake (OVCAR3 tumor xenografts) | pIC50 (SKOV3 cells) | pIC50 (MDA-MB231 cells; 3H-thymidine incorporation, read-out: IC50) | pIC50 (MDA-MB231 cells; excess JL-L3 (100-fold), read-out: IC50 in the presence of an excess of competition ligand) | Anti-tumor effect (tumor volume), competition group (MDA-MB-231 tumors; 2 μmol/kg i.v. with 100-fold excess of JL-L3, 3 times per week for 3 weeks) | Anti-tumor effect (tumor volume) (MDA-MB-231 tumors; [3]) | Body weight loss (gross toxicity) (MDA-MB-231 tumors; [3]) | Tumor growth after end of treatment (MDA-MB-231 tumors; [4]) | Weight loss after end of treatment (MDA-MB-231 tumors; [4]) | Body weight loss (gross toxicity) (SKOV3 tumors) | Anti-tumor effect (tumor volume) (SKOV3 tumors; receptor negative tumors)
Cc1c(-c2cccc(CCC(=O)NCCCCCCCC(=O)N[C@H](CCC(=O)NC[C@H](O)[C@@H](O)[C@H](O)[C@H](O)CO)C(=O)N[C@H](CCC(=O)O)C(=O)N[C@H](CCC(=O)NC[C@H](O)[C@@H](O)[C@H](O)[C@H](O)CO)C(=O)N[C@H](CSC3CC(=O)N(CCNC(=O)CCc4ccc(OC5=C(/C=C/C6=[N+](CCCCS(=O)(=O)O)c7ccc(S(=O)(=O)[O-])cc7C6(C)C)CCC/C5=C\C=C5\N(CCCCS(=O)(=O)O)c6ccc(S(=O)(=O)O)cc6C5(C)C)cc4)C3=O)C(=O)O)c2)c(=O)n(C[C@@H](N)c2ccccc2)c(=O)n1Cc1c(F)cccc1F (some centres unmarked) [JL-L3-S0456] | high fluorescence | none or very minimal fluorescence | accumulated in the breast cancer tumor | able to compete the tumor uptake | only a very slight decrease in the intensity | receptor-mediated uptake | receptor-mediated uptake | – | – | – | – | – | – | – | – | – | –
CCCC(=O)OCN(C(=O)[C@@H](NC(=O)C1CCCCN1C)C(C)CC)[C@H](C[C@@H](OC(C)=O)c1nc(C(=O)N[C@@H](Cc2ccc(O)cc2)C[C@H](C)C(=O)NNC(=O)OCCSSC[C@@H](NC(=O)[C@@H](CCC(=O)NC[C@H](O)[C@@H](O)[C@H](O)[C@H](O)CO)NC(=O)[C@@H](CCC(=O)O)NC(=O)[C@@H](CCC(=O)NC[C@H](O)[C@@H](O)[C@H](O)[C@H](O)CO)NC(=O)CCCCCCCNC(=O)CCc2cccc(-c3c(C)n(Cc4c(F)cccc4F)c(=O)n(C[C@@H](N)c4ccccc4)c3=O)c2)C(=O)O)cs1)C(C)C (some centres unmarked) [JL-L3-TubBH] | – | – | – | – | – | – | – | 6.22 | 7.59 | 6.42 | did not show any decline in tumor growth | complete elimination of the tumor | None of the mice either bearing MDA-MB-231 or SKVO3 experiences significant weight loss | None of the mice showed any indication of tumor growth and weight loss | None of the mice showed any indication of tumor growth and weight loss | None of the mice either bearing MDA-MB-231 or SKVO3 experiences significant weight loss | no reduction in tumor volume

— patent US11883498B2, “Luteinizing hormone-releasing hormone receptor (LHRH-R) conjugates and uses thereof” (priority 2016, dated 2024)
